Target: IL-15 (Homo sapiens, UniProt P40933)
Sequence (P40933 49-162): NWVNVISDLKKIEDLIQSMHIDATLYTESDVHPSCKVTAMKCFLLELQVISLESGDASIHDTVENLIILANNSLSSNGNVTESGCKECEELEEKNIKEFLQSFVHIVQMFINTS

Kd: 240 pM
B1: rILR-Fc (IL-15Rα-Sushi-Fc) Sushi (protein)
chain: TRGITCPPPMSVEHADIWVKSYSLYSRERYICNSGFKRKAGTSSLTECVLNKATNVAHWTTPSLKCIRDPA
modifications: Fc fusion

— publication PMC12114846 (2025)
